Values joined by “and” are separate entries in the source; they are usually repeats but may differ in a detail not shown here. Identical values can stand only once. Like-named read-outs stand apart in the source and are kept apart here.
Tests used:
Assay in all cases: TIRF microscopy
[1] = target: taxol-stabilized microtubules assembled from porcine brain tubulin (porcine) (UniProt P02550)
[2] = target: taxol-stabilized microtubules assembled from porcine brain tubulin (porcine) (UniProt P02550); remark: listed apart in the source
[3] = target: taxol-stabilized microtubules assembled from porcine brain tubulin (porcine) (UniProt P02550); remark: listed apart in the source
[4] = target: taxol-stabilized microtubules assembled from porcine brain tubulin (porcine) (UniProt P02550); remark: listed apart in the source
[5] = target: taxol-stabilized microtubules assembled from porcine brain tubulin (porcine) (UniProt P02550); remark: listed apart in the source
[6] = target: taxol-stabilized microtubules assembled from porcine brain tubulin (porcine) (UniProt P02550); remark: listed apart in the source
[7] = target: taxol-stabilized microtubules assembled from porcine brain tubulin (porcine) (UniProt P02550); remark: listed apart in the source
[8] = target: taxol-stabilized microtubules assembled from porcine brain tubulin (porcine) (UniProt P02550); remark: listed apart in the source
[9] = target: taxol-stabilized microtubules assembled from porcine brain tubulin (porcine) (UniProt P02550); remark: listed apart in the source
[10] = target: taxol-stabilized microtubules assembled from porcine brain tubulin (porcine) (UniProt P02550); remark: listed apart in the source
[11] = target: taxol-stabilized microtubules assembled from porcine brain tubulin (porcine) (UniProt P02550); remark: listed apart in the source
[12] = target: taxol-stabilized microtubules assembled from porcine brain tubulin (porcine) (UniProt P02550); remark: listed apart in the source
[13] = target: taxol-stabilized microtubules assembled from porcine brain tubulin (porcine) (UniProt P02550); remark: listed apart in the source

A landing rate (motors μm^−1min^−1nM^−1) [1] of 0.03, a landing rate (motors μm^−1min^−1nM^−1) [2] of 2.72 and a landing rate (motors μm^−1min^−1nM^−1) [3] of 0.03 were found for “KIF5B_(1-560)-mScarlet (from UniProt P33176 1-560) (domain or fragment)” in this work. The landing rate (motors μm^−1min^−1nM^−1) [4] was 0.05, the landing rate (motors μm^−1min^−1nM^−1) [5] was 0.01 and 0.005 and the landing rate (motors μm^−1min^−1nM^−1) [6] was 0.07. For the same substance, the landing rate (motors μm^−1min^−1nM^−1) [7] was 0.58, the landing rate (motors μm^−1min^−1nM^−1) [8] was 0.02 and the landing rate (motors μm^−1min^−1nM^−1) [9] was 0.06. For the same substance, the landing rate (motors μm^−1min^−1nM^−1) [10] was 0.11.
A landing rate (motors μm^−1min^−1nM^−1) [11] of 0.83, a landing rate (motors μm^−1min^−1nM^−1) [12] of 6.04 and a landing rate (motors μm^−1min^−1nM^−1) [10] of 5.44 were found for “KIF5B_(K-insert)-mScarlet (from UniProt P33176 1-560) (domain or fragment)” in this work.
A fluorescence intensity on microtubules [13] of 13700 A.U and a fluorescence intensity on microtubules [10] of 13200 A.U were found for “TMR-GST-dynein motor domain (SNAPf-GST-hDyn) (domain or fragment)” in this work.
A fluorescence intensity on microtubules [10] of 44200 A.U was found for “p150-mScarlet (from UniProt Q14203-1 1-1278) (natural protein)” in this work.

Reference: article PMC7181406
